Test results: patent US20110112279A1 (Genentech, published 2011)

B1: human STOP-1, full length, C-terminal 8xHis tag (h762HIP; M1-K243-His), expressed in CHO-psgb cells (ligand)
chain: SEIPKGKQKAQLRQREVVDLYNGMCLQGPAGVPGRDGSPGANGIPGTPGIPGRDGFKGEKGECLRESFEESWTPNYKQCSWSSLNYGIDLGKIAECTFTKMRSNSALRVLFSGSLRLKCRNACCQRWYFTFNGAECSGPLPIEAIIYLDQGSPEMNSTINIHRTSSVEGLCEGIGAGLVDVAIWVGTCSDYPKGDASTGWNSVSRIIIEELPKHHHHHHHH
notes: The secreted protein purified from medium lacks the signal peptide; Light scattering: about 58% hexamer and 42% trimer; also called UNQ762; full length form
B2: human STOP-1 short form (L94-K243) with C-terminal His tag, baculovirus expressed (ligand, not shown: small tags and cut ends)
chain: LRESFEESWTPNYKQCSWSSLNYGIDLGKIAECTFTKMRSNSALRVLFSGSLRLKCRNACCQRWYFTFNGAECSGPLPIEAIIYLDQGSPEMNSTINIHRTSSVEGLCEGIGAGLVDVAIWVGTCSDYPKGDASTGWNSVSRIIIEELPK
notes: also called #94-243; L94-K243-His

Key:
[1] = target: the molecule itself; experiment: self-association; size exclusion chromatography with light scattering
Procedure: Full length STOP-1-HIS proteins or various truncations thereof were expressed in SF9 baculovirus-infected cells or CHO cells as described above. The proteins were purified from the media by using Ni-NTA agarose beads as discussed above. The baculoviral-expressed proteins S31-K243-His, E89-K243-His, or L94-K243-His were loaded onto an 8 mm×300 mm Shodex KW802.5 size exclusion column and eluted with 100 mM NH₄HCO₃, 200 mM NH₄Cl pH7.8 at a flow rate of 1 ml/ml. CHO-psgb expressed full length proteins were loaded onto an 8 mm×300 mm Shodex KW804 size exclusion column and eluted with 25 mM sodium phosphate, 500 mM NaCl at a flow rate of 1 ml/ml. CHO-psgb expressed proteins, M1-M54 fused to L94-K243-His, were loaded onto an 8 mm×300 mm Shodex KW802.5 size exclusion column and eluted with 25 mM sodium phosphate, 500 mM NaCl at a flow rate of 1 ml/ml.
The eluted protein was analyzed by an Agilent Model 1100 HPLC system with an Agilent multi wavelength detector (UV) connected to a Wyatt MiniDAWN laser light scattering (LS) instrument and a Wyatt Optilab differential refractometer (RI). The average molecular weight of the proteins or their aggregates in each peak was determined by selecting a peak and using the Zimm fitting method (Phillip J. Wyatt, (1993) Analytica Chimica Acta 272:1-40) with the Astra software package (Wyatt, USA). The percentage of aggregation was calculated from the integrated peak areas of the UV signal at 214 nm. See FIG. 6 and FIG. 7 for results.

[2] = target: B1; experiment: solution competition phage ELISA (762 F/F): full length coated, phage pre-incubated with full length STOP-1 in solution; IC50 is the STOP-1 concentration
Procedure: (§1) The wells were blocked by adding 65 ul 1% BSA for 30 minutes followed by 40 ul 1% Tween20 for another 30 minutes. Next, the wells were washed with PBS—0.05% Tween20 5 times. Various dilutions of F(ab) or F(ab)′₂ phage down to 0.1 O.D./ml in ELISA buffer (PBS—0.1% BSA and 0.05% Tween20) were added to the wells for 15 minutes at room temperature. The wells were then washed with PBS—0.05% Tween20 at least three times. 75 ul of HRP-conjugated anti-M13 antibody (Amersham, 1/5000 dilution with ELISA buffer) per well was added and incubated at room temperature for 30 minutes. The wells were washed again with PBS—0.05% Tween20 at least five times. Next, 100 ul/well of a 1:1 ratio of 3,3′,5,5′-tetramethylbenzidine (TMB) Peroxidase substrate and Peroxidase Solution B (H₂O₂) ((Kirkegaard-Perry Laboratories (Gaithersburg, Md.)) was added to the well and incubated for 5 minutes at room temperature. The reaction was stopped by adding 100 ul 1M Phosphoric Acid (H3PO₄) ((Kirkegaard-Perry Laboratories (Gaithersburg, Md.)) to each well. The optical density of the color in each well was determined using a standard ELISA plate reader at 450 nm. The dilutions of phage were plotted against the O.D. readings.
(§2) Third, a competition ELISA was performed. 96-well Nunc Maxisorp plates were coated with full length or short form human STOP-1 (2 ug/ml in PBS) at 4° C. overnight or at room temperature for 2 hours. The wells were blocked by adding 65 ul 1% BSA for 30 minutes followed by 40 ul 1% Tween20 for another 30 minutes. The wells were washed with PBS—0.05% Tween20 5 times. […] The unbound phage was assayed by transferring 75 ul of the well mixture to second 96-well plate pre-coated with full length or short form human STOP-1 and incubating at room temperature for 15 minutes. The wells of the second plate were washed with PBS—0.5% Tween20 at least three times. 75 ul of HRP-conjugated anti-M13 antibody ( 1/5000 dilution with ELISA buffer) per well was added and incubated at room temperature for 30 minutes. The wells were washed again with PBS—0.05% Tween20 at least five times.

[3] = target: B1; experiment: solution competition phage ELISA (762 S/F): short form coated, phage pre-incubated with full length STOP-1 in solution; IC50 is the STOP-1 concentration
Procedure: as §1, §2

[4] = target: B2; experiment: solution competition phage ELISA (762 S/S): short form coated, phage pre-incubated with short form STOP-1 in solution; IC50 is the STOP-1 concentration
Procedure: as §1, §2

[5] = target: B1; experiment: blocking ELISA, legend of FIG. 22
Procedure: First, 96-well Nunc Maxisorp plates were coated with full length human STOP-1 (2 ug/ml in PBS) at 4° C. overnight or at room temperature for 2 hours. The wells were blocked by adding 65 ul 1% BSA for 30 minutes followed by 40 ul 1% Tween20 for another 30 minutes. Next, the wells were washed with PBS—0.05% Tween20 5 times. Various concentrations of S4 IgG (in ELISA buffer) were incubated in the wells for 30 minutes at room temperature. Then, S4 (Fab)-phage, S7 (F(ab)′₂)-phage, S9 (Fab)-phage, S16 (F(ab)′₂)-phage or F5 (F(ab)′₂)-phage were added to different wells for 10 minutes at a concentration that would normally produce 90% binding capacity in the absence of the S4 IgG antibody. The wells were washed with PBS—0.05% Tween20 5 times.
Binding was quantified by adding 75 ul/well of horse radish peroxidase (HRP)-conjugated anti-M13 antibody in PBS plus 0.5% BSA and 0.05% Tween20 at room temperature for 30 minutes (Sidhu et al., supra). […] Next, 100 ul/well of a 1:1 ratio of 3,3′,5,5′-tetramethylbenzidine (TMB) Peroxidase substrate and Peroxidase Solution B (H₂O₂) ((Kirkegaard-Perry Laboratories (Gaithersburg, Md.)) was added to the well. The reaction was stopped by adding 100 ul 1M Phosphoric Acid (H₃PO₄) ((Kirkegaard-Perry Laboratories (Gaithersburg, Md.)) to each well. The OD of the yellow color in each well was determined using a standard ELISA plate reader at 450 nm.

| Binder | binding result [1] | IC50 [2] | IC50 [3] | IC50 [4] | other results |
| --- | --- | --- | --- | --- | --- |
| B1 | binds |  |  |  |  |
| human STOP-1 S31-K243 with C-terminal His tag, baculovirus expressed (ligand, not shown: small tags and cut ends, Primarily trimeric by light scattering; also called S31-K243-His; S31humanSTOP-1-pAcGP67B) SEIPKGKQKAQLRQREVVDLYNGMCLQGPAGVPGRDGSPGANGIPGTPGIPGRDGFKGEKGECLRESFEESWTPNYKQCSWSSLNYGIDLGKIAECTFTKMRSNSALRVLFSGSLRLKCRNACCQRWYFTFNGAECSGPLPIEAIIYLDQGSPEMNSTINIHRTSSVEGLCEGIGAGLVDVAIWVGTCSDYPKGDASTGWNSVSRIIIEELPK | binds |  |  |  |  |
| S7 F(ab)'2 displayed on M13 phage (V0350-4-S7) (other, also called S7-F(ab)'2-phage; F(ab)'2-S7 phage) light: SDIQMTQSPSSLSASVGDRVTITCRASQDVSTAVAWYQQKPGKAPKLLIYSASFLYSGVPSRFSGSGSGTDFTLTISSLQPEDFATYYCQQSYTTPPTFGQGTKVEIKRTVAAPSVFIFPPSDEQLKSGTASVVCLLNNFYPREAKVQWKVDNALQSGNSQESVTEQDSKDSTYSLSSTLTLSKADYEKHKVYACEVTHQGLSSPVTKSFNRGECGASSGMADPNRFRGKDLA heavy: AYAEVQLVESGGGLVQPGGSLRLSCAASGFTISGSDIHWVRQAPGKGLEWVGRISPYGGNTNYADSVKGRFTISADTSKNTAYLQMNSLRAEDTAVYYCARVGGLKLLFDYWGQGTLVTVSSASTKGPSVFPLAPSSKSTSGGTAALGCLVKDYFPEPVTVSWNSGALTSGVHTFPAVLQSSGLYSLSSVVTVPSSSLGTQTYICNVNHKPSNTKVDKKVEPKSCDKTHG |  | 2.7 nM | 4.7 nM | 35 nM |  |
| S16 F(ab)'2 displayed on M13 phage (V0350-4-S16) (other, also called S16-F(ab)'2-phage; F(ab)'2-S16 phage) light: SDIQMTQSPSSLSASVGDRVTITCRASQDVSTAVAWYQQKPGKAPKLLIYSASFLYSGVPSRFSGSGSGTDFTLTISSLQPEDFATYYCQQSYTTPPTFGQGTKVEIKRTVAAPSVFIFPPSDEQLKSGTASVVCLLNNFYPREAKVQWKVDNALQSGNSQESVTEQDSKDSTYSLSSTLTLSKADYEKHKVYACEVTHQGLSSPVTKSFNRGECGASSGMADPNRFRGKDLA heavy: AYAEVQLVESGGGLVQPGGSLRLSCAASGFTITNSDIHWVRQAPGKGLEWVATIYPYGGYTYYADSVKGRFTISADTSKNTAYLQMNSLRAEDTAVYYCARGGGMDGYVMDYWGQGTLVTVSSASTKGPSVFPLAPSSKSTSGGTAALGCLVKDYFPEPVTVSWNSGALTSGVHTFPAVLQSSGLYSLSSVVTVPSSSLGTQTYICNVNHKPSNTKVDKKVEPKSCDKTHG |  | 32 nM |  | 114 nM |  |
| human STOP-1 delta-THD (residues 1-54, 94-243, plus His), expressed in CHO-psgb cells (ligand, also called ΔTHDh762HIP; M1-M54 fused to L94-K243-His) SEIPKGKQKAQLRQREVVDLYNGMLRESFEESWTPNYKQCSWSSLNYGIDLGKIAECTFTKMRSNSALRVLFSGSLRLKCRNACCQRWYFTFNGAECSGPLPIEAIIYLDQGSPEMNSTINIHRTSSVEGLCEGIGAGLVDVAIWVGTCSDYPKGDASTGWNSVSRIIIEELPKHHHHHHHH | binds |  |  |  |  |
| human STOP-1 E89-K243 with C-terminal His tag, baculovirus expressed (ligand, not shown: small tags and cut ends, A mix of trimeric and hexameric complexes by light scattering; also called E89-K243-His; E89humanSTOP-1-pAcGP67B) EKGECLRESFEESWTPNYKQCSWSSLNYGIDLGKIAECTFTKMRSNSALRVLFSGSLRLKCRNACCQRWYFTFNGAECSGPLPIEAIIYLDQGSPEMNSTINIHRTSSVEGLCEGIGAGLVDVAIWVGTCSDYPKGDASTGWNSVSRIIIEELPK | binds |  |  |  |  |
| S4 Fab displayed on M13 phage (V0350-2b-S4) (Fab, V domains shown, Fab on phage: the heavy chain (VH-CH1) is fused to M13 cP3 and the light chain carries a gD tag; also called S4-Fab phage; S4 (Fab)-phage) VH: EVQLVESGGGLVQPGGSLRLSCAASGFTISGSWIHWVRQAPGKGLEWVAWIAPYSGATDYADSVKGRFTISADTSKNTAYLQMNSLRAEDTAVYYCAREGGLYWVFDYWGQGTLVTVSS VL: not shown |  | 0.9 nM | 719 nM | 3 nM |  |
| S4 IgG (full-length human IgG1; LPG3-humankappaG6 and LPG4-humanHC-S4), expressed in CHO cells (antibody, V domains shown, also called S4 antibody) VH: EVQLVESGGGLVQPGGSLRLSCAASGFTISGSWIHWVRQAPGKGLEWVAWIAPYSGATDYADSVKGRFTISADTSKNTAYLQMNSLRAEDTAVYYCAREGGLYWVFDYWGQGTLVTVSS VL: DIQMTQSPSSLSASVGDRVTITCRASQDVSTAVAWYQQKPGKAPKLLIYSASFLYSGVPSRFSGSGSGTDFTLTISSLQPEDFATYYCQQSYTTPPTFGQGTKVEIKR |  |  |  |  | binding result [5]: binds |
| B2 | binds |  |  |  |  |
| S9 Fab displayed on M13 phage (V0350-2b-S9) (Fab, also called S9 (Fab)-phage) light: not shown heavy: AYAEVQLVESGGGLVQPGGSLRLSCAASGFTISNYGIHWVRQAPGKGLEWVGRISPSNGSTYYADSVKGRFTISADTSKNTAYLQMNSLRAEDTAVYYCAKCSVRFAYWGQGTLVTVSSASTKGPSVFPLAPSSKSTSGGTAALGCLVKDYFPEPVTVSWNSGALTSGVHTFPAVLQSSGLYSLSSVVTVPSSSLGTQTYICNVNHKPSNTKVDKKVEPKSCDKTHL |  |  | 331 nM | > 1000 nM |  |
